Experimental findings from article PMC3625156, “Biochemical Characteristics of New Delhi Metallo-β-Lactamase-1 Show Unexpected Difference to Other MBLs” (PLoS ONE, 2013) are described below.

Series [1] has as its target T1, New Delhi metallo-β-lactamase-1 (NDM-1) (Klebsiella pneumoniae, UniProt C7C422).
T1 construct: gene blaNDM-1; native (no fusion or tag) NDM-1
The series can be described thus: initial hydrolysis rate of […] substrate by purified enzyme at varied ZnSO4. In kind it is biochemical.

The subject of series [2] is CC1(C)S[C@@H]2[C@H](NC(=O)Cc3ccccc3)C(=O)N2[C@H]1C(=O)O. The series can be described thus: purified protein. As to conditions: Zn2+. The format is biochemical, Klebsiella pneumoniae.
For series [3], the system named is C[C@@H](O)[C@H]1C(=O)N2C(C(=O)[O-])=C(SC3Cn4cnc[n+]4C3)[C@H](C)[C@H]12. The series can be described thus: purified protein. In kind it is biochemical, Klebsiella pneumoniae. As to conditions: Zn2+.
The subject of series [4] is CCN1CCN(C(=O)N[C@@H](C(=O)N[C@@H]2C(=O)N3[C@@H]2SC(C)(C)[C@@H]3C(=O)O)c2ccccc2)C(=O)C1=O. The series can be described thus: purified protein. In kind it is biochemical, Klebsiella pneumoniae. As to conditions: Zn2+.
The test system of series [5] is CC(C)(O/N=C(\C(=O)N[C@@H]1C(=O)N2C(C(=O)[O-])=C(C[n+]3ccccc3)CS[C@H]12)c1csc(N)n1)C(=O)O. The series can be described thus: purified protein. In kind it is biochemical, Klebsiella pneumoniae. As to conditions: Zn2+.
For series [6], the system named is C[C@@H](O)[C@H]1C(=O)N2C(C(=O)O)=C(S[C@@H]3CN[C@H](C(=O)N(C)C)C3)[C@H](C)[C@H]12. The series can be described thus: purified protein. In kind it is biochemical, Klebsiella pneumoniae. As to conditions: Zn2+.
The subject of series [7] is CO[C@@]1(NC(=O)Cc2cccs2)C(=O)N2C(C(=O)O)=C(COC(N)=O)CS[C@@H]21. The series can be described thus: purified protein. In kind it is biochemical, Klebsiella pneumoniae. As to conditions: Zn2+.
The test system of series [8] is CO/N=C(\C(=O)N[C@@H]1C(=O)N2C(C(=O)O)=C(COC(C)=O)CS[C@H]12)c1csc(N)n1. Briefly: purified protein. The format is biochemical, Klebsiella pneumoniae. As to conditions: Zn2+.

T1 sequence (C7C422 29-270 limits assumed): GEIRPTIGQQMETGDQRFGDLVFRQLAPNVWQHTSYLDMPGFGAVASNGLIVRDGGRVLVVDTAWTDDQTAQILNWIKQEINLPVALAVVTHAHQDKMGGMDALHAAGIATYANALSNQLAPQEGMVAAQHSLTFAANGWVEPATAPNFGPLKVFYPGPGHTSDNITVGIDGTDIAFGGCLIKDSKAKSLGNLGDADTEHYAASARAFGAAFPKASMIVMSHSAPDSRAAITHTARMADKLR

Regarding `CO/N=C(\C(=O)N[C@@H]1C(=O)N2C(C(=O)[O-])=C(C[N+]3(C)CCCC3)CS[C@H]12)c1csc(N)n1` [cefepime], the “initial hydrolysis rate of 0.5 mM substrate by purified enzyme at varied ZnSO4” value in series [1] is “The hydrolysis rates of cephem (ceftazidime and cefepime) were found to be very sensitive to the ZnSO4 concentration”.
As to “New Delhi metallo-β-lactamase-1 (NDM-1) (Klebsiella pneumoniae)”, the Km in series [2] is on record as 103 µM; in series [3], 155 µM; in series [4], 69 µM; in series [5] it was 74 µM; in series [6] it was 42 µM; in series [7], 63 µM. The Km in series [8] was 43 µM. Also, the kcat worked out at 27.5 s⁻¹ in series [2]; 106 s⁻¹ in series [3]; 8.3 s⁻¹ in series [4]; 60.9 s⁻¹ in series [5]; 30.8 s⁻¹ in series [6]; 38.3 s⁻¹ in series [7]. Also, in series [8], the kcat was found to be 31.5 s⁻¹. For the same compound, the kcat/Km in series [2] is 270000 M⁻¹ s⁻¹; in series [3], 680000 M⁻¹ s⁻¹; in series [4], 120000 M⁻¹ s⁻¹; in series [5], 830000 M⁻¹ s⁻¹; in series [6], 730000 M⁻¹ s⁻¹; in series [7], 610000 M⁻¹ s⁻¹. Besides, in series [8], the kcat/Km was determined as 740000 M⁻¹ s⁻¹.
